{"source": "paper PMC2566858", "about": "(Nucleic Acids Research, 2008)", "test_in_all_cases": "fluorescence anisotropy", "key": {"[1]": {"biological_target": "T1, rGyr_fl Y851F (full-length reverse gyrase) (Thermotoga maritima, UniProt O51934 1-1104, Y851F)", "T1 sequence": "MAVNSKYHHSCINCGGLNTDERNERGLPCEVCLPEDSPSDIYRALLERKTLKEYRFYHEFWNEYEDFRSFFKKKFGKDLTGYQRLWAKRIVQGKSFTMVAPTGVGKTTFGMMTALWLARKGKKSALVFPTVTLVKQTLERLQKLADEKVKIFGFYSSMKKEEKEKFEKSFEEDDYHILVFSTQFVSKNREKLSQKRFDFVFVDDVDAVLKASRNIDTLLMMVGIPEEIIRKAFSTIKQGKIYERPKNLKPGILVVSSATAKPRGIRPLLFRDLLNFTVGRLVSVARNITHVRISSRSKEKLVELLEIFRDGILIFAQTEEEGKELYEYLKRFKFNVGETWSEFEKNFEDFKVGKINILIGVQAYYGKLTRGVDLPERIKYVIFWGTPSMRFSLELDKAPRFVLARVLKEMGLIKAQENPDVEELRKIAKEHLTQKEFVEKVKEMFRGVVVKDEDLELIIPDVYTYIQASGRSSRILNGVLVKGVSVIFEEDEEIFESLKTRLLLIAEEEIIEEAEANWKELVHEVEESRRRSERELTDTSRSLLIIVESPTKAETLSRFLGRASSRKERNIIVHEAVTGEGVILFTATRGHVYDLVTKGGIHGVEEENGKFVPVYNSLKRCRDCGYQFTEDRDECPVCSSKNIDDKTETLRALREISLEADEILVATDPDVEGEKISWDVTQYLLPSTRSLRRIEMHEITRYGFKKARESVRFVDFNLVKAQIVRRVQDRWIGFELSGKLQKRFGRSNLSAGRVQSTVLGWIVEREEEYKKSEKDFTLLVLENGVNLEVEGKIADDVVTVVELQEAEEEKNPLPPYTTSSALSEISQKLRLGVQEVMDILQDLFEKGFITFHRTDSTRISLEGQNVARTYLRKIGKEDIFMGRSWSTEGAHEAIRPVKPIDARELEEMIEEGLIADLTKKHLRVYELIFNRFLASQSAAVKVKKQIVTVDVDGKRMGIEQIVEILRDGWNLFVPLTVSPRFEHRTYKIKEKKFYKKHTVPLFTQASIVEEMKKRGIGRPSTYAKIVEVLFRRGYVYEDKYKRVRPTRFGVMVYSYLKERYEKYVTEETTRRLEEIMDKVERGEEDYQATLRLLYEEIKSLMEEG"}, "[2]": {"biological_target": "T1, rGyr_fl Y851F (full-length reverse …)", "remark": "listed apart in the source"}, "rGyr_fl K106Q/Y851F": {"biological_target": "T2, rGyr_fl K106Q/Y851F (Thermotoga maritima, UniProt O51934 1-1104, K106Q;Y851F)", "T2 sequence": "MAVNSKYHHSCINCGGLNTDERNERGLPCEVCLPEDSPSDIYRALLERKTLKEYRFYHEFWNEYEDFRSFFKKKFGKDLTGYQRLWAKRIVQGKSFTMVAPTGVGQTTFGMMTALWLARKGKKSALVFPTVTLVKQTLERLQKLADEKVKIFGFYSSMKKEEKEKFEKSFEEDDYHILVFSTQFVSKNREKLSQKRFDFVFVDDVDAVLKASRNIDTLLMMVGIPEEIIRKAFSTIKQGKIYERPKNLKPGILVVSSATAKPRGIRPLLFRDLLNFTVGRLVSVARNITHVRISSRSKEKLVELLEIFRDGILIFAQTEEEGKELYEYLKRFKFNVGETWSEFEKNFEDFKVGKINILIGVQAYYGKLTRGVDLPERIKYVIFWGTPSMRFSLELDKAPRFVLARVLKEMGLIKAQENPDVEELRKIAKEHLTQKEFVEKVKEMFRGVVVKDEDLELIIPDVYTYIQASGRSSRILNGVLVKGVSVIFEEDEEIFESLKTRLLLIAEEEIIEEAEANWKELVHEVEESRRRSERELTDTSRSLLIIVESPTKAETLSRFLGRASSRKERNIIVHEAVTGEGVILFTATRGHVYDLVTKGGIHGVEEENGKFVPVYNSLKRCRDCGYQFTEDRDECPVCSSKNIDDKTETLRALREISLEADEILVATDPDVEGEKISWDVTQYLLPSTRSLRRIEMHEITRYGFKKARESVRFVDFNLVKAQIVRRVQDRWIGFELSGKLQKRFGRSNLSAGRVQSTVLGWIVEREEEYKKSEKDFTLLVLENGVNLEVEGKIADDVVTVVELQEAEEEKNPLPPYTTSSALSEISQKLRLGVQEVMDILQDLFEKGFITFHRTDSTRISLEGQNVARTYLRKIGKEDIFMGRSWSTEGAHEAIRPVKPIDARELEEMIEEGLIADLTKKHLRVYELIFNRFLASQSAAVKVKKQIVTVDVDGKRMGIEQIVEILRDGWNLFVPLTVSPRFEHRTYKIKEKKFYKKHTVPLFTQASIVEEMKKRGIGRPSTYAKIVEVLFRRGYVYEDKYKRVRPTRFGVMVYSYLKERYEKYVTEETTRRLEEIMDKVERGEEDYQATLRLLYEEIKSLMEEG"}}, "note": "Like-named read-outs stand apart in the source and are kept apart here.", "data": [{"binder": "60-base ssDNA (ssDNA) DNA: AAGCCAAGCTTCTAGAGTCAGCCCGTGATATTCATTACTTCTTATCCTAGGATCCCCGTT", "values": [{"measurement": "Kd", "setting": "[1]", "result": "41 ± 1", "unit": "nM"}, {"measurement": "Kd", "setting": "[2]", "result": "38 ± 2", "unit": "nM"}]}, {"binder": "60 bp dsDNA (dsDNA) DNA 1: AAGCCAAGCTTCTAGAGTCAGCCCGTGATATTCATTACTTCTTATCCTAGGATCCCCGTT DNA 2: AACGGGGATCCTAGGATAAGAAGTAATGAATATCACGGGCTGACTCTAGAAGCTTGGCTT", "values": [{"measurement": "Kd", "setting": "rGyr_fl K106Q/Y851F", "result": "490 ± 90", "unit": "nM"}]}]}
